Results on one protein are retold here after article doi:10.1101/2020.09.01.277368 (bioRxiv, 2020).

This data set deals with the molecule itself. The data set can be described thus: AUC; sedimentation velocity (SV-AUC); MetA at 10, 20 and 30 µM in 20 mM Tris-Cl pH 7.5, 150 mM NaCl; 40,000 rpm; absorbance at 280 nm; SEDFIT continuous c(s) distribution; monomer, dimer and tetramer peaks, populations unchanged at the three concentrations.

Where “and” joins values, the source holds several entries; their conditions need not be identical. Equal values may be shown once.

B1: homoserine acetyl transferase MetA (Rv3341) of Mycobacterium tuberculosis, recombinant histidine-tagged (enzyme)
chain: MTISDVPTQTLPAEGEIGLIDVGSLQLESGAVIDDVCIAVQRWGKLSPARDNVVVVLHALTGDSHITGPAGPGHPTPGWWDGVAGPGAPIDTTRWCAVATNVLGGCRGSTGPSSLARDGKPWGSRFPLISIRDQVQADVAALAALGITEVAAVVGGSMGGARALEWVVGYPDRVRAGLLLAVGARATADQIGTQTTQIAAIKADPDWQSGDYHETGRAPDAGLRLARRFAHLTYRGEIELDTRFANHNQGNEDPTAGGRYAVQSYLEHQGDKLLSRFDAGSYVILTEALNSHDVGRGRGGVSAALRACPVPVVVGGITSDRLYPLRLQQELADLLPGCAGLRVVESVYGHDGFLVETEAVGELIRQTLGLADREGACRR
notes: also called HSAT; (His)6-Rv3341
On to B1, for which the “stoichiometry N” value was 2 and 4.
